Results from the supplement of paper PMC10126150.
± gives the standard deviation of the averaged measurements.

System: ATP
Test: switch fluorescence ratio, 500 uM ATP over buffer (Cy3 cluster intensity, sum of 5 cycles each) (fold (ratio)); higher = stronger signal-on switching upon ATP binding; sequences stand for … in TCGTCGGCAGCGTCAGATGTGTATAAGAGACAGTTTTTTTTTTTTTTTTTTTTTTTTT…TC
Conditions: aptamer strand: ATP DNA aptamer (quencher-CACCTGGGGGAGTATTGCGGAGGAAGG + anchor), 100 nM annealed; ATP concentration: 500 uM
In short: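 For every switch-domain sequence, the fluorescence ratio is the mean of per-cluster values, each being summed target-cycle Cy3 intensity over summed buffer-cycle Cy3 intensity. Clusters outside 100-1000 RFU were excluded. On a modified Illumina MiSeq flow-cell, the Cy3-labelled switching-strand clusters were annealed to 100 nM quencher-labelled ATP aptamer, imaged in selection buffer and then after 15 min with 500 uM ATP at 22 °C. Five such cycles were run, with NaOH stripping and re-annealing between them.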
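Also: ATP exposure 15 min at 22 °C before imaging.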

Sequence	switch fluorescence ratio
AAAGAAACGG	1.1 ± 0.035
AAAGAAGATG	0.953 ± 0.045
AAAGAATTGG	0.975 ± 0.045
AAAGACAGTT	1.01 ± 0.049
AAAGACGAT	1.01 ± 0.017
AAAGACGGCA	1.53 ± 0.02
AAAGAGACAG	0.993 ± 0.0046
AAAGAGCAAT	1.79 ± 1.1
AAAGAGGAAG	0.987 ± 0.02
AAAGAGGGAT	0.986 ± 0.053
AAAGAGGGT	0.986 ± 0.018
AAAGAGTAGA	1.025 ± 0.0034
AAAGAGTGTG	0.988 ± 0.037
AAAGATAACT	1.024 ± 0.0098
AAAGATTAGT	0.9713 ± 0.0097
AAAGCGAGTC	1.021 ± 0.01
AAAGCGGACT	1.044 ± 0.0089
AAAGCGGGGA	1.04 ± 0.011
AAAGCGTGTT	1.02 ± 0.05
AAAGCTCGTG	1 ± 0.015
AAAGCTGCGT	0.9843 ± 0.0049
AAAGCTTCAT	1.46 ± 0.088
AAAGCTTTGA	0.983 ± 0.01

Sequence	switch fluorescence ratio
AAAGGAAGG	0.995 ± 0.013
AAAGGAGAGC	0.973 ± 0.087
AAAGGAGGGA	1.01 ± 0.035
AAAGGAGGGT	0.9994 ± 0.0062
AAAGGATATG	0.995 ± 0.018
AAAGGATGG	0.997 ± 0.036
AAAGGATGGT	0.953 ± 0.022
AAAGGCCGTG	1.0223 ± 0.00097
AAAGGGATAG	1.01 ± 0.038
AAAGGGCGGG	1.016 ± 0.0049
AAAGGGCTGG	0.984 ± 0.019
AAAGGGGAAA	1 ± 0.051
AAAGGGGCTA	0.988 ± 0.02
AAAGGGGGCT	0.9912 ± 0.0026
AAAGGGGGGG	1.01 ± 0.037
AAAGGGGTCA	1 ± 0.034
AAAGGGGTCT	1.01 ± 0.031
AAAGGGGTG	1.06 ± 0.016
AAAGGGGTGG	0.992 ± 0.043
AAAGGGTAGA	1.04 ± 0.019
AAAGGGTGCG	1.03 ± 0.017
AAAGGGTGTT	1.04 ± 0.013
AAAGGGTTTT	1.01 ± 0.022

Sequence	switch fluorescence ratio
AAAGGTAATA	1 ± 0.025
AAAGGTACGA	1.02 ± 0.016
AAAGGTCGAC	0.973 ± 0.021
AAAGGTGCAA	1.21 ± 0.2
AAAGGTGGGC	0.98 ± 0.039
AAAGGTGGTA	1.02 ± 0.066
AAAGGTGTAT	1.02 ± 0.014
AAAGGTTGGT	1.011 ± 0.0037
AAAGGTTTGC	1 ± 0.039
AAAGGTTTGG	0.976 ± 0.035
AAAGGTTTTC	0.9804 ± 0.0084
AAAGTACGCG	0.984 ± 0.046
AAAGTACTGG	1.19 ± 0.042
AAAGTCACAC	1.04 ± 0.022
AAAGTCATCT	0.995 ± 0.023
AAAGTCCATA	1.01 ± 0.026
AAAGTCCTAG	0.99 ± 0.016
AAAGTCGGGC	0.946 ± 0.059
AAAGTCTACA	1.03 ± 0.024
AAAGTGATGT	0.969 ± 0.02
AAAGTGCATC	0.992 ± 0.0037
AAAGTGGGAT	1.03 ± 0.019
AAAGTGGTTA	1.01 ± 0.025

Sequence	switch fluorescence ratio
AAAGTGTGC	1.07 ± 0.03
AAAGTTCAGT	0.98958 ± 0.00071
AAAGTTTCCA	0.993 ± 0.025
AAAGTTTCGT	1.01 ± 0.018
AAAGTTTTCG	0.977 ± 0.026
AAATAAAACT	1.1 ± 0.19
AAATAAACGA	0.98 ± 0.0072
AAATAAAGGG	0.987 ± 0.032
AAATAAATAA	0.944 ± 0.011
AAATAACCGA	1.08 ± 0.02
AAATAAGATT	1.02 ± 0.018
AAATAATTGT	1.019 ± 0.01
AAATAATTTT	1.01 ± 0.027
AAATACTTGG	1.04 ± 0.055
AAATACTTTT	1.03 ± 0.021
AAATAGAAGA	1.03 ± 0.038
AAATAGGGGA	0.989 ± 0.039
AAATAGGTTA	1.02 ± 0.046
AAATAGGTTT	1 ± 0.044
AAATATCGGT	0.971 ± 0.018
AAATATGGTG	1 ± 0.021
AAATATTGTT	0.976 ± 0.027
AAATATTTCG	1.02 ± 0.03

Sequence	switch fluorescence ratio
AAATCATATG	1.08 ± 0.087
AAATCATTGT	1 ± 0.014
AAATCCGATT	1.01 ± 0.011
AAATCCTTAT	0.996 ± 0.063
AAATCGAGCG	0.969 ± 0.025
AAATCGCATG	1.03 ± 0.019
AAATCGGAAA	0.98 ± 0.028
AAATCGTAGG	0.963 ± 0.054
AAATGATCTA	1.01 ± 0.029
AAATGCACAC	1.107 ± 0.0021
AAATGCAGGG	1.01 ± 0.055
AAATGCCACG	1.06 ± 0.017
AAATGCGGGG	0.978 ± 0.036
AAATGGATTT	1.01 ± 0.085
AAATGGCCGG	0.996 ± 0.024
AAATGGTAGG	0.996 ± 0.0086
AAATGTCAAA	0.986 ± 0.042
AAATGTGGCG	1.03 ± 0.011
AAATGTTATC	0.986 ± 0.042
AAATTAAATT	0.996 ± 0.039
AAATTAATTT	1.02 ± 0.043
AAATTAGGGG	0.9908 ± 0.0085
AAATTAGTG	1.05 ± 0.059

Sequence	switch fluorescence ratio
AAATTCATTG	0.969 ± 0.04
AAATTCGATT	1.032 ± 0.0037
AAATTCGGGT	0.981 ± 0.016
AAATTCGGTG	0.999 ± 0.016
AAATTGAGGC	0.96 ± 0.027
AAATTGCCTG	1.01 ± 0.047
AAATTGCTGC	1.01 ± 0.036
AAATTGGACT	1.02 ± 0.033
AAATTGGGCA	0.997 ± 0.029
AAATTGGGGA	0.986 ± 0.014
AAATTGGTAA	1 ± 0.017
AAATTTAGCA	0.99 ± 0.052
AAATTTGGCT	0.992 ± 0.071
AAATTTTTGG	1.01 ± 0.045
AACAAACCGT	1.1 ± 0.017
AACAAGGGCT	1.04 ± 0.014
AACAATGAAG	1.03 ± 0.022
AACAATGGGG	1.03 ± 0.077
AACACATGCG	0.9936 ± 0.0015
AACACCAGGT	1.38 ± 0.45
AACACCTAGG	1.02 ± 0.028
AACACGAATT	0.998 ± 0.025
AACAGAAGAG	1.007 ± 0.01

Sequence	switch fluorescence ratio
AACAGATTTT	0.998 ± 0.011
AACAGCAGGC	1.16 ± 0.013
AACAGCTGTT	0.972 ± 0.035
AACAGGCTGG	1.01 ± 0.013
AACAGGGAGG	0.993 ± 0.032
AACAGTACAC	1.22 ± 0.023
AACATGCTTA	0.972 ± 0.02
AACATGTCTC	1.01 ± 0.043
AACATTAAAT	1.1 ± 0.1
AACCAGCGGA	0.994 ± 0.019
AACCATTGCT	1.048 ± 0.0053
AACCCCGGGG	1.02 ± 0.067
AACCCGGGAA	0.995 ± 0.042
AACCGCGGTG	0.984 ± 0.011
AACCGCTTGG	0.995 ± 0.056
AACCGGATTC	1 ± 0.02
AACCGGGGGT	0.991 ± 0.038
AACCTACGGC	1.38 ± 0.083
AACCTATTCT	1.15 ± 0.17
